Measured values published in patent publication US20240392024A1 (SHANGHAI CELGEN BIO PHARMACEUTICAL, published 2024).
Several values for one entry are separate records, joined by “and”; a condition that tells them apart may be missing. Equal entries are not always repeated.

T1: TNFR2-His (Sino Biological, 10417-H08H, NP_001057.1 Met1-Asp257, with multi-histidine tag expressed on … (human, UniProt P20333 23-257))
T1 construct: range 1-257; Bought protein; also called recombinant human TNFR2 protein; TNFR2-His antigen; not shown: C-terminal multi-histidine tag
T1 sequence (looked up): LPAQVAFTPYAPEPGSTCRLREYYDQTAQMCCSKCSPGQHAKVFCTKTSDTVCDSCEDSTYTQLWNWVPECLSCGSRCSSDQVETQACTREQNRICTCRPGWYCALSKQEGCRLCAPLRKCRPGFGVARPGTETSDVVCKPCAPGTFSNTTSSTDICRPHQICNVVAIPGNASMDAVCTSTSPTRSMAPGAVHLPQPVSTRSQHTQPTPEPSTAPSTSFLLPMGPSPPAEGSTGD

T2: human TNFR2 on the cell membrane (human, UniProt P20333 23-461)
T2 construct: whole, on cells; One molecule for all cell formats; also called TNFR2-CHO cells; CHO-TNFR2
T2 sequence (looked up): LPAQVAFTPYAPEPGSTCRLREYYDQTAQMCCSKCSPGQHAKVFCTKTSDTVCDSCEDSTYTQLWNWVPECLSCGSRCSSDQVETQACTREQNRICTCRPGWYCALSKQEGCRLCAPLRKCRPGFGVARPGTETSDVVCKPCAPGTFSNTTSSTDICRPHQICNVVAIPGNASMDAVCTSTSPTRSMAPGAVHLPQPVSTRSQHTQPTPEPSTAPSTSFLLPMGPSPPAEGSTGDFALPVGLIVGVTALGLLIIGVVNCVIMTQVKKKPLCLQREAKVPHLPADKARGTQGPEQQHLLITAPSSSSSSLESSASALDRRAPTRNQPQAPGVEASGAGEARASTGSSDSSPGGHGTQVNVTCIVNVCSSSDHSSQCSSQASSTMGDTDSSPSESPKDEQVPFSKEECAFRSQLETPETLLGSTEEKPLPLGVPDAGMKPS

T3: WT
T3 construct: also called T cells of wild-type (WT) mice; mouse TNFR2 on the cell membrane
T3 chain: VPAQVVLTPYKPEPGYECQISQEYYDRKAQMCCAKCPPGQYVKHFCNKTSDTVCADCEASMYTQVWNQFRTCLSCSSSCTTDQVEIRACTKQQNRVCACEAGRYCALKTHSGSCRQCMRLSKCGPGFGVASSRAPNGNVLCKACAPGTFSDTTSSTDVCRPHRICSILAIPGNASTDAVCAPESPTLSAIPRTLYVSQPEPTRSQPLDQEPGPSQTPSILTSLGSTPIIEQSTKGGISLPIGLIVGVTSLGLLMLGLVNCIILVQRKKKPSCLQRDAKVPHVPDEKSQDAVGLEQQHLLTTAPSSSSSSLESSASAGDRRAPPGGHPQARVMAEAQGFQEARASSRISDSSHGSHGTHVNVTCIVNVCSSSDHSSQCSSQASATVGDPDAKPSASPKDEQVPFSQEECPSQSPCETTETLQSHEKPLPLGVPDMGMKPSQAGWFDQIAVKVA

B1: human-mouse chimeric TNFR2 monoclonal antibody 33C12-hFc (antibody, V domains shown)
VH: DVKLVESGGGLVKPGGSLKLSCAASGFTFSDYTMSWVRQTPEKRLEWVATISTGGSYTYYPDSVKGRFTISRDNAKNTLYLQMSSLKSEDTAMYYCTRDGGYDGDYFDYWGQGTTLTVSS
VL: ENVLTQSPAIMSASPGEKVTMTCRASSSVSSSYLHWYQQKSGASPKLWIYRTSNLASGVPARFSGSGSGTSYSLTISSVEAEDAATYYCQQYSGYPLTFGAGTRLELK
notes: Mouse V regions of clone 33C12 with human constant regions; also called human-mouse chimeric 33C12 antibody
B2: human-mouse chimeric TNFR2 monoclonal antibody 29A1-hFc (antibody, V domains shown)
VH: QVQLQQSGAEVVRPGASVTLSCKASGYTFSDYEMHWVKQTPVHGLEWIGAIDPETGDTAYNQKFKDKARVTADKSSSTAYMELRSLTSEDSAVYYCTRDIHYYGSSLSYFDYWGQGTTLTVSS
VL: DIVMTQSQKFMSTSVGDRVSVTCKASQNVGTNVAWYQQKPGQSPKVMIYSASYRYSGAPDRFTGSGSGTDFTLTVNNVQSEDLAEYFCQQYKTYPYTFGGGTKLEIE
notes: Mouse V regions of clone 29A1 with human constant regions
B3: human-mouse chimeric TNFR2 monoclonal antibody 7F2-hFc (antibody, V domains shown)
VH: QVTLKESGPGILQPSQTLSLTCSFSGFSLNTFGLGVGWIRQPSGKGLEWLTHIWWNDDKYYNPALKSRLTISRDTSENLVFLKIANVDTADTATYYCARIEGLRRFDYWGQGTTLTVSS
VL: DIQMTQSPSSLSASLGGKVTITCKTSQDINKFIAWYQHKPGKGPRLLIHYTSTLQPGIPSRFSGSGSGRDYSFSISDLEPEDIATYYCLQYANLWAFGGGTKLEIK
notes: Mouse V regions of clone 7F2 with human constant regions

What was measured:
[1] = target: T1, TNFR2-His (Sino Biological, 10417-H08H, …); experiment: ELISA, coated TNFR2-His
In short: (§1)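 Antibodies were serially diluted and incubated on blocked ELISA plates coated with C-terminally His-tagged recombinant human TNFR2. Detection used an enzyme-labelled anti-IgG secondary antibody, TMB development and a microplate reader, and the dilution series gave the EC50.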

[2] = target: T2, human TNFR2 on the cell membrane; experiment: flow cytometry, CHO-TNFR2 cells
In short: (§2)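 Binding was measured by flow cytometry (Beckman CytoFLEX) on a CHO line stably overexpressing human TNFR2. Cells in 96-deep-well plates were exposed to serially diluted antibodies, washed and labelled with a fluorescent anti-IgG secondary antibody, and EC50 was determined across the dilutions.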

[3] = target: T2, human TNFR2 on the cell membrane; experiment: flow cytometry, Jurkat-TNFR2 cells
Description: (§3) Purified human-mouse monoclonal antibodies against TNFR2 were co-cultured with TNFR2 positive Jurkat cells (Jurkat cells were transfected with pcDNA3.4-TNFR2 plasmid using conventional methods, and after screening, stable and highly expressed TNFR2 Jurkat cell lines were obtained) and stained. The antibody binding intensity was analyzed by flow cytometry. The specific steps are as follows: Jurkat-TNFR2 was counted, centrifuged, resuspended, then added to a 96-deep well plate, and the supernatant was discarded. The anti-TNFR2 antibody was gradient diluted, and added to the 96-deep well plate, After incubation and wash, the secondary antibody FITC-anti-human IgG (Abcam: 6854) was added, and the samples were detected using Beckman CytoFLEX.

[4] = target: T1, TNFR2-His (Sino Biological, 10417-H08H, …); experiment: ELISA, plate coated with TNFR2-His
Description: To determine whether the human-mouse chimeric TNFR2 monoclonal antibody of the present invention can bind to recombinant human TNFR2 protein, in vitro ELISA test was conducted. Similar to the method described above, The plate was coated with TNFR2-His (Sino Biological, 10417-H08H, Assessment #NP_001057.1.Met1-Asp257, with multi-histidine tag expressed on C-terminus) antigens, and blocked with BSA, then added with gradient diluted human-mouse chimeric TNFR2 monoclonal antibodies for incubation. Then, secondary antibody Ap-anit-human IgG Fc (JacksonImmuno Research, 109-055-098) was added for incubation After TMB development, ELISA reading was performed.

[5] = target: T2, human TNFR2 on the cell membrane; experiment: flow cytometry on CHO-TNFR2 cells
In short: as §2

[6] = target: T2, human TNFR2 on the cell membrane; experiment: flow cytometry on Jurkat-TNFR2 cells
Description: as §3

[7] = target: T1, TNFR2-His (Sino Biological, 10417-H08H, …); experiment: ELISA, plate coated with TNFR2-His; remark: listed apart in the source
In short: as §1

[8] = target: T1, TNFR2-His (Sino Biological, 10417-H08H, …); experiment: BLI, antibody captured on AHC probe, TNFR2 in solution
Description: The GATOR (ProbeLife) detection instrument and AHC (Pall, 185064), Human antibody Capture probe were used to detect the dissociation constant (Kd) of human-mouse chimeric TNFR2 monoclonal antibody.
The human-mouse chimeric TNFR2 monoclonal antibodies were diluted to 50 nM in binding buffer (Q buffer [PBS (10 mM PH7.4)+0.02% Tween 20+0.2% BSA). The recombinant human TNFR2 protein was diluted in Q buffer with a 2-fold gradient starting from the highest concentration of 100 nM. The kinetic association assay was conducted by placing the antibody capture sensor in the continuously diluted antigen solutions mentioned above. The Octet Data Acquisition software was pened and the New Kinetics Experiment-Basic Kinetics mode was selected.

[9] = target: T1, TNFR2-His (Sino Biological, 10417-H08H, …); experiment: BLI, antibody captured on AHC probe, TNFR2-His in solution
In short: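 Antibodies at 50 nM in Q buffer were held on antibody-capture sensors, and the sensors were then moved into recombinant human TNFR2 diluted 2-fold in Q buffer, starting from 100 nM. Q buffer was 10 mM PBS pH 7.4 with 0.02% Tween 20 and 0.2% BSA. The work used bio-layer interferometry on an Octet in Basic Kinetics mode, and Kon, koff and Kd come from these kinetic association measurements.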

WT = target: T3, WT; experiment: flow cytometry on ConA-stimulated spleen cells of WT mice, mCD3+ T cells
Description: (§4) The cells were stained again with Cy-3 anti-human IgG and FITC anti-mCD3 (BD, 555274) after washing, under the same incubation conditions. After washing, the detection was performed.

[10] = target: T2, human TNFR2 on the cell membrane; experiment: flow cytometry on ConA-stimulated spleen cells of hTNFR2-KI mice, mCD3+ T cells
Description: as §4

[11] = target: T2, human TNFR2 on the cell membrane; experiment: flow cytometry on human PBMC, CD3+ T cells
Description: Purified anti-human TNFR2 human-mouse chimeric monoclonal antibodies were co-cultured with PBMC cells (Oricells) and stained. The binding of the antibody was analyzed by flow cytometry. The specific steps are as follows: PBMC cells (Oricells) were counted, centrifuged, resuspended, then added to a 96-deep well plate, and the supernatant was discarded. Diluted anti-TNFR2 monoclonal antibodies were added.

[12] = target: T1, TNFR2-His (Sino Biological, 10417-H08H, …); experiment: competition ELISA, coated TNFR2-His, biotin-labeled TNFα fusion protein at fixed concentration
Description: (§5) The ELISA plate was coated with TNFR2-His antigen (Sino Biological, 10417-H08H, Assessment #NP_001057.1. Met1-Asp257, with multi-histidine tags expressed on C-terminus) and blocked, added with the gradient diluted TNFR2 monoclonal antibodies and biotin-labeled TNFα fusion protein of fixed concentration for incubation, then added with the secondary antibody Ap-Strepavidin (Herobio, 510401) for incubation. After development, the detection was performed using microplate reader.

[13] = target: T1, TNFR2-His (Sino Biological, 10417-H08H, …); experiment: competition ELISA on coated TNFR2-His against biotin-labeled TNFα fusion protein at fixed concentration
Description: as §5

[14] = target: T2, human TNFR2 on the cell membrane; experiment: competition flow cytometry, TNFR2 positive cells, TNFα fusion protein at fixed concentration
Description: Purified anti-human TNFR2 human-mouse monoclonal antibodies were co-cultured with TNFR2 positive cells and stained. The antibody binding intensity was analyzed by flow cytometry. The specific steps are as follows: cells were counted, centrifugated, resuspended, then added to a 96-deep well plate, and the supernatant was discarded. Gradient diluted anti-TNFR2 antibodies and TNFα fusion protein of fixed concentration were added. After incubation and wash, the secondary antibody PE-streptavidin (Biogen, 405203) was added for incubation, and the samples were detected using Beckman CytoFLEX.

EC50 [1] [nM]	EC50 [2] [nM]	EC50 [3] [µg/mL]	EC50 [4] [µg/mL]	EC50 [5] [µg/mL]	EC50 [6] [µg/mL]	EC50 [7]	Kd [8] [nM]	koff [8] [s⁻¹]	kon [8] [M⁻¹ s⁻¹]	Kd [9] [nM]	koff [9] [s⁻¹]	kon [9] [M⁻¹ s⁻¹]	binding result (WT)	percent of cells in the upper right quadrant (Q2-UR, mCD3+ and anti-hIgG+) (WT) [%]	percent of cells in the upper right quadrant (Q2-UR, mCD3+ and anti-hIgG+) [10] [%]	percent of cells in the upper right quadrant (Q1-UR, CD3+ and anti-human IgG Fc+) [11] [%]	IC50 [12] [µg/mL]	IC50 [13]	IC50 [14] [µg/mL]	Binder
0.318	0.951	0.66	0.0475	0.142	0.658	0.0782 µg/mL and 0.524 nM	21.9	0.00286	131000	17.3	0.00156	90500	no binding	1.02	43.6					B1
0.248			0.037		14.2		16.3	0.00469	289000							13.6	0.642	0.648 µg/mL and 4.34 nM		B2
0.319		0.024	0.0476		0.0243		25.3	0.00639	253000				no binding	0.9	45		0.225	0.229 µg/mL and 1.53 nM	0.417	B3
